Assays:
[1] = target: Human Serum Albumin (human), P02768; test: calculated from KD(HSA) at 150 µM HSA (equation 2)
[2] = target: Human Serum Albumin (human), P02768; test: Transil XL HSA binding kit (immobilized HSA), unbound compound by RP-HPLC

B1: FA-linked dimeric ligand 14 (peptide)
peptide: IETDV
modifications: not checked
fu (%), fraction unbound [1]: 43.6% | Kd [2]: 116 µM

B2: FA-linked dimeric ligand 15 (peptide)
peptide: IETDV
modifications: not checked
fu (%), fraction unbound [1]: 26.8% | Kd [2]: 55 µM
